Assay results from patent US20250296984A1, “THERAPEUTIC AND DIAGNOSTIC AGENTS AND USES THEREOF” (priority 2022, published 2025).

Columns and labels:
Experiment in all cases: HuProt Human Proteome Microarray, off-target human proteins
Assay type in all cases: binding
Set-up in all cases: key to Z Score: Z = (F635 − mean F635 of all spots) / SD; average of duplicate spots; key to S Score: difference between this protein's Z score and the next-ranked protein's
[1] = test system: human proteins on HuProt Human Proteome Microarray
Excerpt: (§1) The HuProt™ Human Proteome Microarray provides the largest number of unique, full-length, individually purified human proteins on a single microscope slide. It provides >21,000 unique human proteins, isoform variants, and protein fragments—covering 16,794 unique genes. This includes 15,889 of the 19,613 canonical human proteins described in the Human Protein Atlas, with broad coverage across protein subclasses. This allows thousands of interactions to be profiled in a high-throughput manner. The full-length recombinant proteins are expressed in the yeast S. cerevisiae, purified, and printed on glass slides in duplicate along with a set of control proteins (GST, BSA, histones, IgG, etc.). The full list of the different proteins included in the HuProt™ Human Proteome Microarray as used in this Example is provided as “List B” in the Research Disclosures publication (ISSN 0374-4353, Questel Ireland Ltd) with database numbers 707018, 707019 and 707020, each entitled “Large scale protein arrange target protein identities” and each digitally published on 27 Jan. 2023, the contents of each of which are incorporated herein by reference in their entirety, fo the purposes of the disclosure of the proteins defined by “List B”. “List B” begins in Research Disclosures publication 707018, is continued in Research Disclosures publication 707019, and concludes Research Disclosures publications 707020, and so the three publications are to be read consecutively as a single disclosure of the “List B” proteins. The HuProt™ microarray is not restricted to a particular type of surface coating, although the default is glass coated with ultrathin nitrocellulose film for the non-covalent, yet irreversible, capture of active proteins to the surface.
(§2) Samples of humanised 7B1F3 and mouse 7B1F3 antibodies were analysed for binding specificities on HuProt™ human proteome arrays. A peptide with the sequence TDVLNQSKPVTL (“Peptide 3”) was added to the arrays at 0.1 mg/ml as a control.
(§3) After blocking, the arrays were probed with the antibody samples (0.1 μg/ml) at room temperature for 1 hour. Then the arrays were washed with TBST for 10 min×3 and probed with Alexa647-anti-human IgG Fc or Alexa647-anti-mouse IgG secondary antibodies under conditions optimized by CDI Labs for signal detection.
(§4) • Non-specific hits that directly bind to the secondary antibodies were eliminated from the analysis of the samples. • CDI software was used to quantify the specificity of each individual sample to specific proteins on the array based on Z Scores. • Z score is the average Z score of the duplicate spots of a given protein (each protein is printed in duplicate on a HuProt™ array). The Z score of each spot on a given array is calculated according to the algorithm below:
(§5) Z=[F635−F635(avg)]/F635(std) • F635(avg) and F635(std) are the average and standard deviation of the F635 values of all spots on the array, respectively. • S score is the difference of the Z Scores of a given protein and the one ranked next to it. If the S score of the top hit is >3, the antibody is considered to be highly specific for the top hit. • F635 is the average foreground signal intensity of 2 replicate spots of a given protein in the detection channel (635 nm). • B635 is the average background signal intensity of 2 replicate spots of a given protein in the detection channel (635 nm).

[2] = target: T1, human proteins on HuProt Human Proteome Microarray (Homo sapiens, UniProt Q13895); details: Protein: BYSL
T1 construct: purchased CDI Labs (HuProt); host or cells: yeast S. cerevisiae
T1 sequence (Q13895 1-437): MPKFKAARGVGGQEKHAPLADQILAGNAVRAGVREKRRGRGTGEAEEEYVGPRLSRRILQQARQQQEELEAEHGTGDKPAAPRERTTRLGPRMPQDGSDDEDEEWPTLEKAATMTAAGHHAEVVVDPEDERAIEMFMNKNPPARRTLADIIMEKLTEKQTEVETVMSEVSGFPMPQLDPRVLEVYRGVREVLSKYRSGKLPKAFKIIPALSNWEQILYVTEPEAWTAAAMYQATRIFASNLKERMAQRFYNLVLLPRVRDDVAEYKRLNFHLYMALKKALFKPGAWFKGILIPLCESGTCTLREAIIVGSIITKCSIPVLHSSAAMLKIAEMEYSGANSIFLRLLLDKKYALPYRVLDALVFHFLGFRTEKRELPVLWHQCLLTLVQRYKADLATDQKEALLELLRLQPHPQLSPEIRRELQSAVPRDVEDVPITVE
Excerpt: as §1, §2, §3, §4, §5

[3] = target: T2, human proteins on HuProt Human Proteome Microarray (Homo sapiens, UniProt Q14847); details: Protein: LASP1
T2 construct: purchased CDI Labs (HuProt); host or cells: yeast S. cerevisiae
T2 sequence (Q14847 1-261): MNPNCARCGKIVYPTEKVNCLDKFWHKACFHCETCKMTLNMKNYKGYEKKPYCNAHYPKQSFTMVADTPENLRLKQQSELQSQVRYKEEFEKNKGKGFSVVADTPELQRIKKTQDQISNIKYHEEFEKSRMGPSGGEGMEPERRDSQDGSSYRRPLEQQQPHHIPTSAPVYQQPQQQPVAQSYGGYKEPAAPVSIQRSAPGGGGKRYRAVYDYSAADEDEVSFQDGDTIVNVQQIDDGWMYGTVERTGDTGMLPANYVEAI
Excerpt: as §1, §2, §3, §4, §5

B1: 7B1F3: mouse IgG1 kappa antibody against US28 ECD1 Peptide-N; VH SEQ ID NO: 211, VL SEQ ID NO: 213 (antibody, V domains shown)
VH: EVQLQQSGAELAKPGASVKMSCKASGYTFTNYWMHWVKQRPGQGLEWIGYVNPRTGYTEYNQKFKDKATLTADKSSRTAYMQLSSLTSEDSAVYSCARILNGTGFAYWGQGTLVTVSA
VL: DIVLTQSPSSLTVSVGEKFTMSCKSSQSLLYSSNQKNYLAWYQQKPGQSPKLLIYWASTRESGVPDRFTGSGSGTDFTLAISSVKPEDLAIYYCQQYYSFPLTFGAGTKLEIK
modifications: Mature form of VH sequence of 7B1F3, without the leader sequence; Mature form of VL sequence of 7B1F3, without the leader sequence
B1 was tested, and the F635 ([1]; Protein: AGAP2) was 10020.5, the “S Score” value ([1]; Protein: AGAP2) was 15.511 and the “Z Score” value ([1]; Protein: AGAP2) was 28.997. For the same molecule, the “S Score” value ([1]; Protein: BYSL) was 0.378, the “S Score” value ([1]; Protein: CCDC97) was 0.353 and the F635 ([1]; Protein: DNAJB2) was 3312. For the same molecule, the “S Score” value ([1]; Protein: DNAJB2) was 0.235, the “Z Score” value ([1]; Protein: DNAJB2) was 9.502 and the F635 ([1]; Protein: EXD2) was 2701.5. The “S Score” value ([1]; Protein: EXD2) was 1.271, the “Z Score” value ([1]; Protein: EXD2) was 7.728 and the “S Score” value ([1]; Protein: FBXO2) was 2.911. The “S Score” value ([1]; Protein: LASP1) was 1.073, the F635 ([1]; Protein: SYNCRIP) was 2264 and the “S Score” value ([1]; Protein: SYNCRIP) was 0.157. For the same molecule, the “Z Score” value ([1]; Protein: SYNCRIP) was 6.457, the F635 ([1]; Protein: TRIM33) was 3231 and the “S Score” value ([1]; Protein: TRIM33) was 1.539. The “Z Score” value ([1]; Protein: TRIM33) was 9.267, the F635 [2] was 2210 and the “Z Score” value [2] was 6.3. For the same molecule, the F635 [3] was 3681 and the “Z Score” value [3] was 10.575.
